According to article PMC5332220:
Read-outs that look alike come from different tables or passages of the source.

Columns and labels:
SspB_micro [1] = target: SspB_micro (UniProt P45206)
SspB_milli [2] = target: SspB_milli (UniProt P45206)
SspB_nano [3] = target: SspB_nano (UniProt P45206)
SspB_micro [4] = target: SspB_micro (UniProt P45206); assay: fluorescence polarisation
SspB_milli [5] = target: SspB_milli (UniProt P45206); assay: fluorescence polarisation
SspB_nano [6] = target: SspB_nano (UniProt P45206); assay: fluorescence polarisation
SspB_micro [7] = target: SspB_micro (UniProt P45206); assay: fluorescence polarisation; remark: listed apart in the source
SspB_milli [8] = target: SspB_milli (UniProt P45206); assay: fluorescence polarisation; remark: listed apart in the source
SspB_nano [9] = target: SspB_nano (UniProt P45206); assay: fluorescence polarisation; remark: listed apart in the source

Substance: sLID (slow Light Inducible Dimer) (designed binder)
- spine/shaft ratio of GluA1-mCh-SspB fluorescence, dark (SspB_micro [1]): 1.5
- spine/shaft ratio of GluA1-mCh-SspB fluorescence, light (SspB_micro [1]): 1.8
- spine/shaft ratio of GluA1-mCh-SspB fluorescence, dark (SspB_milli [2]): 1.5
- spine/shaft ratio of GluA1-mCh-SspB fluorescence, light (SspB_milli [2]): 2.4
- spine/shaft ratio of GluA1-mCh-SspB fluorescence, dark (SspB_nano [3]): 2.8
- spine/shaft ratio of GluA1-mCh-SspB fluorescence, light (SspB_nano [3]): 2.9
- Kd (SspB_micro [4]): 2500 nM
- Kd (SspB_milli [5]): 125 µM
- Kd (SspB_nano [6]): 310 nM
- Kd (SspB_micro [7]): 110 nM
- Kd (SspB_milli [8]): 3000 nM
- Kd (SspB_nano [9]): 7 nM
